± gives the standard deviation of the averaged measurements.
Tested on: ATP
Test: switch fluorescence ratio, 500 uM ATP over buffer (Cy3 cluster intensity, sum of 5 cycles each) (fold (ratio)); higher = stronger signal-on switching upon ATP binding; sequences stand for … in TCGTCGGCAGCGTCAGATGTGTATAAGAGACAGTTTTTTTTTTTTTTTTTTTTTTTTT…TC
Details: aptamer strand: ATP DNA aptamer (quencher-CACCTGGGGGAGTATTGCGGAGGAAGG + anchor), 100 nM annealed; ATP concentration: 500 uM
In short: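 Clusters carrying Cy3-labelled switching strands on a modified Illumina MiSeq flow-cell were annealed to 100 nM quencher-labelled ATP aptamer and imaged in selection buffer. They were imaged again after 15 min with 500 uM ATP at 22 °C, over five buffer/ATP cycles with NaOH stripping and re-annealing in between. For each cluster, the fluorescence ratio is the summed Cy3 intensity of the target cycles divided by that of the buffer cycles, averaged per switch-domain sequence. Clusters outside 100-1000 RFU were left out.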
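Further: ATP exposure 15 min at 22 °C before imaging.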

TTTATATTTT
switch fluorescence ratio: 1.02 ± 0.034

TGCAGGGTGG
switch fluorescence ratio: 1.05 ± 0.051

GGTAAAGGGG
switch fluorescence ratio: 0.991 ± 0.058

GATAGTGAAA
switch fluorescence ratio: 1.02 ± 0.035

GCTTTCGTTA
switch fluorescence ratio: 1.018 ± 0.0071

AACTTTTTCG
switch fluorescence ratio: 1.012 ± 0.0034

TATTAGACGA
switch fluorescence ratio: 0.963 ± 0.015

GTGAAAGTCG
switch fluorescence ratio: 0.9929 ± 0.0024

GGATTTAGGC
switch fluorescence ratio: 0.977 ± 0.029

ATAGTGTGTG
switch fluorescence ratio: 1.004 ± 0.008

TGGCTTTTTT
switch fluorescence ratio: 0.998 ± 0.027

AAGAGGGACT
switch fluorescence ratio: 1.03 ± 0.021

TGGTCATTGC
switch fluorescence ratio: 1.064 ± 0.0086

GGGGGAGCGA
switch fluorescence ratio: 0.98 ± 0.059

TTAGTGAGCG
switch fluorescence ratio: 1.03 ± 0.012

ATCAGGGTTT
switch fluorescence ratio: 1.005 ± 0.0057

GCGTTTTTTG
switch fluorescence ratio: 0.9912 ± 0.0054

CTCTTACTTT
switch fluorescence ratio: 0.9862 ± 0.0084

CTATATGGAC
switch fluorescence ratio: 1.05 ± 0.017

TTCGGGGGGT
switch fluorescence ratio: 1.02 ± 0.051

TCATTATTCT
switch fluorescence ratio: 0.97 ± 0.012

TTTATAAGGT
switch fluorescence ratio: 0.988 ± 0.012

TAGGGATTCT
switch fluorescence ratio: 0.995 ± 0.026

GGTGTTTGAC
switch fluorescence ratio: 0.999 ± 0.011

ACACTGGCCC
switch fluorescence ratio: 0.964 ± 0.038

GCTAAAGTCG
switch fluorescence ratio: 0.9814 ± 0.005

TATGCGATTG
switch fluorescence ratio: 1.04 ± 0.019

CAAATTTTCT
switch fluorescence ratio: 0.978 ± 0.025

ATTTGTCGTA
switch fluorescence ratio: 0.997 ± 0.029

TTATTGGGAT
switch fluorescence ratio: 0.981 ± 0.033

CAGGTAGTGT
switch fluorescence ratio: 1.02 ± 0.024

GGTGTGGCTA
switch fluorescence ratio: 0.989 ± 0.012

GTTTCTCATC
switch fluorescence ratio: 1.02 ± 0.011

TGACGTTAAG
switch fluorescence ratio: 1.03 ± 0.086

TGAGGTTTGT
switch fluorescence ratio: 0.98 ± 0.028

AAAGCCGGTA
switch fluorescence ratio: 1.01 ± 0.084

ATAATCTGCG
switch fluorescence ratio: 1.01 ± 0.012

CTAACGCCTG
switch fluorescence ratio: 1.03 ± 0.07

AATCATGGGG
switch fluorescence ratio: 0.993 ± 0.041

TTAGGTTAGG
switch fluorescence ratio: 0.9765 ± 0.0064

CTATTCTAGG
switch fluorescence ratio: 1.019 ± 0.0083

GCCAGATTAA
switch fluorescence ratio: 0.976 ± 0.014

CTCGGAACCT
switch fluorescence ratio: 1.84 ± 0.22

TCGGCTTGGG
switch fluorescence ratio: 0.987 ± 0.02

GCTTTTCGAT
switch fluorescence ratio: 0.994 ± 0.035

GGTTGGGGAT
switch fluorescence ratio: 0.979 ± 0.016

TACCAGGGGT
switch fluorescence ratio: 0.9909 ± 0.0039

CAGGTAGGCG
switch fluorescence ratio: 0.984 ± 0.016

AATGAAAAAT
switch fluorescence ratio: 0.989 ± 0.067

TTTCAAATCA
switch fluorescence ratio: 1.01 ± 0.037

TTGCACTAAC
switch fluorescence ratio: 1.22 ± 0.05

TCGGACTGGG
switch fluorescence ratio: 1.01 ± 0.022

CAATGGAAGG
switch fluorescence ratio: 1.03 ± 0.025

AAAAAAAAGA
switch fluorescence ratio: 0.996 ± 0.048

TATTCTTGGG
switch fluorescence ratio: 1 ± 0.028

AGAGTAGTTA
switch fluorescence ratio: 0.9737 ± 0.0036

AGTTTGGGGT
switch fluorescence ratio: 1.01 ± 0.029

ATCTTGCGGA
switch fluorescence ratio: 1.02 ± 0.05

GAGGTGAGAC
switch fluorescence ratio: 1.06 ± 0.13

CCTGTTGGGG
switch fluorescence ratio: 0.991 ± 0.039

TACTTCTCCA
switch fluorescence ratio: 1.04 ± 0.016

TCCAGAAGGC
switch fluorescence ratio: 1.09 ± 0.13

TCTTGGCCAT
switch fluorescence ratio: 1.24 ± 0.32

TGAAGTAGGG
switch fluorescence ratio: 1.05 ± 0.12

ACTGTATGTG
switch fluorescence ratio: 1.05 ± 0.024

CCCAATGATC
switch fluorescence ratio: 1.52 ± 0.043

GTTTTCTATA
switch fluorescence ratio: 0.975 ± 0.039

AGTGGGGGGT
switch fluorescence ratio: 0.991 ± 0.03

ATGGCTTGGA
switch fluorescence ratio: 0.996 ± 0.029

TTTTGGCCTG
switch fluorescence ratio: 1.02 ± 0.038

GAATTCTGAG
switch fluorescence ratio: 1.02 ± 0.04

CCCGAAGGTA
switch fluorescence ratio: 1.01 ± 0.024

ATCCGGGCGC
switch fluorescence ratio: 1.08 ± 0.1

CGATATGGGT
switch fluorescence ratio: 0.9801 ± 0.0026

ATTCGACAGA
switch fluorescence ratio: 1.02 ± 0.016

GGTGAAGAGG
switch fluorescence ratio: 0.9791 ± 0.0061

TTCCTGGTCA
switch fluorescence ratio: 0.997 ± 0.012

CAGAGAGTTA
switch fluorescence ratio: 0.984 ± 0.024

AGGGGAATTT
switch fluorescence ratio: 0.992 ± 0.03

AAACTAAAAA
switch fluorescence ratio: 1 ± 0.033

TTTTTCCCCG
switch fluorescence ratio: 1.33 ± 0.6

ATTGTGGATA
switch fluorescence ratio: 0.95 ± 0.022

ACTTGGGACT
switch fluorescence ratio: 1.04 ± 0.047

TAAAAGGAAA
switch fluorescence ratio: 0.9773 ± 0.0045

TGGTAGGATG
switch fluorescence ratio: 0.964 ± 0.05

GTGTTCTAGT
switch fluorescence ratio: 0.955 ± 0.012

TTTTACAAAA
switch fluorescence ratio: 0.981 ± 0.02

GCATGAGCGG
switch fluorescence ratio: 1.01 ± 0.013

GGAACGGGGG
switch fluorescence ratio: 1.02 ± 0.014

ATTAGGGTAA
switch fluorescence ratio: 1.02 ± 0.026

TACTGAGCAT
switch fluorescence ratio: 1.24 ± 0.086

AAGGCCGGGT
switch fluorescence ratio: 1.05 ± 0.054

TGACACGGTT
switch fluorescence ratio: 0.9814 ± 0.0058

CACAACGGGA
switch fluorescence ratio: 0.985 ± 0.029

TATGTTCGAG
switch fluorescence ratio: 0.968 ± 0.033

TTGTATATGT
switch fluorescence ratio: 1.0292 ± 2.1e-05

AGTTTGTTTG
switch fluorescence ratio: 1.006 ± 0.009

GGGGGGGTCG
switch fluorescence ratio: 0.983 ± 0.048

GGGGTAAATC
switch fluorescence ratio: 1.01 ± 0.024

CCTTTGGAGG
switch fluorescence ratio: 0.981 ± 0.016

CGCAGGATTT
switch fluorescence ratio: 1.09 ± 0.19

TTTATATGAA
switch fluorescence ratio: 0.97 ± 0.042

AGACCGAGTT
switch fluorescence ratio: 1.08 ± 0.096

TGTTAGAATC
switch fluorescence ratio: 0.963 ± 0.012

TCATTTGGTT
switch fluorescence ratio: 0.988 ± 0.042

AGGGTCTAGA
switch fluorescence ratio: 0.978 ± 0.023

GCGTGTCCGT
switch fluorescence ratio: 1.01 ± 0.025

AGATGGCGCT
switch fluorescence ratio: 0.967 ± 0.029

GGGTAAGTGC
switch fluorescence ratio: 1.047 ± 0.0017

TCGGTTGTTG
switch fluorescence ratio: 1.01 ± 0.013

CGTGAATTGT
switch fluorescence ratio: 1.044 ± 0.01

GATGTGGTGA
switch fluorescence ratio: 0.9929 ± 0.0061

AGTAGTTATA
switch fluorescence ratio: 1.03 ± 0.093

TCTGTTGTG
switch fluorescence ratio: 1.03 ± 0.029

AAAAGGCCGT
switch fluorescence ratio: 1.02 ± 0.0058

AAGATTCGCC
switch fluorescence ratio: 0.993 ± 0.012

CACTAGTCTG
switch fluorescence ratio: 1.01 ± 0.033

TTGTTCAAGG
switch fluorescence ratio: 0.981 ± 0.015

TGAAATGTTT
switch fluorescence ratio: 0.999 ± 0.031

ATTAGTAAAG
switch fluorescence ratio: 0.9972 ± 0.0073

TTTTTTATCG
switch fluorescence ratio: 1 ± 0.031

TAAGGTTGTA
switch fluorescence ratio: 0.9705 ± 0.0047

TCATTGGTTA
switch fluorescence ratio: 1.02 ± 0.042

GTTGGGAGGA
switch fluorescence ratio: 0.989 ± 0.018

ATTGCGGGGG
switch fluorescence ratio: 0.994 ± 0.019

AGATGAATGT
switch fluorescence ratio: 0.987 ± 0.015

AGGGATCGGG
switch fluorescence ratio: 1.002 ± 0.01

CTGGGAGGTT
switch fluorescence ratio: 0.97 ± 0.05

GATGACTTGT
switch fluorescence ratio: 0.972 ± 0.011

GCGGGCGCCC
switch fluorescence ratio: 1.011 ± 0.006

GGGGGTACTG
switch fluorescence ratio: 0.965 ± 0.028

TGTGGGCTGT
switch fluorescence ratio: 1.02 ± 0.015

CAGAACCCGC
switch fluorescence ratio: 1.1 ± 0.015

ACTGTATATT
switch fluorescence ratio: 1.18 ± 0.023

GGATAATGAG
switch fluorescence ratio: 0.961 ± 0.028

AGGGAGGGCT
switch fluorescence ratio: 1.02 ± 0.02

ACTAGTATGC
switch fluorescence ratio: 0.992 ± 0.017

TTTCTAACTC
switch fluorescence ratio: 1 ± 0.053

TCTTCTGTCG
switch fluorescence ratio: 1.001 ± 0.0087

AATGCACAGA
switch fluorescence ratio: 1.05 ± 0.045

ATTACAGGAC
switch fluorescence ratio: 1.08 ± 0.012

TCAGCGGGAG
switch fluorescence ratio: 1.012 ± 0.0016

CTACTTAGGG
switch fluorescence ratio: 1.03 ± 0.036

GGTTGGCGGG
switch fluorescence ratio: 1.07 ± 0.021

TTGTAATTGT
switch fluorescence ratio: 0.995 ± 0.021

CACGGGGGAC
switch fluorescence ratio: 1.06 ± 0.021

CGATTCTTTT
switch fluorescence ratio: 0.979 ± 0.01

GTATGGATGT
switch fluorescence ratio: 1.007 ± 0.0043

TTGAGAGGGT
switch fluorescence ratio: 0.9859 ± 0.0089

CGGATAATTG
switch fluorescence ratio: 0.9886 ± 0.0054

TTCAGACTAT
switch fluorescence ratio: 1.01 ± 0.027

AACGTTCGCC
switch fluorescence ratio: 0.987 ± 0.032

CGTTCATTGT
switch fluorescence ratio: 0.9942 ± 0.0098

TTATTGGACT
switch fluorescence ratio: 1.02 ± 0.019

AACACGGCTG
switch fluorescence ratio: 1.05 ± 0.027

CTCAGTTATG
switch fluorescence ratio: 1.0176 ± 0.00079

CCGAAGTCCT
switch fluorescence ratio: 1.25 ± 0.033

ACATTGTTAT
switch fluorescence ratio: 1.07 ± 0.1

CGGGTAGCTT
switch fluorescence ratio: 1.017 ± 0.0093

CGGTTAAGGC
switch fluorescence ratio: 1.07 ± 0.017

TTACTGTTG
switch fluorescence ratio: 1.05 ± 0.1

ATTCGATAGT
switch fluorescence ratio: 1.03 ± 0.018

CTGAGCCGGA
switch fluorescence ratio: 1.08 ± 0.16

TTGGGGGTTA
switch fluorescence ratio: 1.02 ± 0.019

GGTGGGGGTG
switch fluorescence ratio: 0.998 ± 0.031

AGAGTGGAAG
switch fluorescence ratio: 0.977 ± 0.051

TTTCGGGGCA
switch fluorescence ratio: 1.02 ± 0.034

TAATTGTTTT
switch fluorescence ratio: 1 ± 0.024

CTTGGATGTC
switch fluorescence ratio: 0.985 ± 0.03

AGCCATTTTG
switch fluorescence ratio: 1.02 ± 0.022

GTAACAGGGT
switch fluorescence ratio: 0.999 ± 0.023

TCGCCCGAGC
switch fluorescence ratio: 1.09 ± 0.11

GCCTGATACA
switch fluorescence ratio: 1.02 ± 0.031

CAGAAGTCCA
switch fluorescence ratio: 0.991 ± 0.052

TAATAAAGGT
switch fluorescence ratio: 0.995 ± 0.025

AATGGATACG
switch fluorescence ratio: 1.05 ± 0.019

AAGTGGTGCT
switch fluorescence ratio: 1.024 ± 0.0011

GCGGTGAGAT
switch fluorescence ratio: 0.989 ± 0.012

GGATTAATTT
switch fluorescence ratio: 0.98006 ± 0.00058

AGTTGCTTTT
switch fluorescence ratio: 0.993 ± 0.036

TTTCAAGAGT
switch fluorescence ratio: 1.03 ± 0.034

GGTTATAATC
switch fluorescence ratio: 0.969 ± 0.07

GGAGTTTTGT
switch fluorescence ratio: 0.9614 ± 0.0087

CGAAGTCGTC
switch fluorescence ratio: 1.02 ± 0.021

GGGACGGGGC
switch fluorescence ratio: 1.06 ± 0.041

GACTTGTGTA
switch fluorescence ratio: 0.994 ± 0.016

GGTTGGCGTT
switch fluorescence ratio: 0.961 ± 0.03

AAGAGGTTTT
switch fluorescence ratio: 1.01 ± 0.02

GCGCTTGCTC
switch fluorescence ratio: 1.13 ± 0.013

TTATGGCTAT
switch fluorescence ratio: 0.991 ± 0.031

TTACGGCATG
switch fluorescence ratio: 1.03 ± 0.014

TACAGTTGCG
switch fluorescence ratio: 1.02 ± 0.045

TTTGAGGTCT
switch fluorescence ratio: 1.05 ± 0.072

TTATAGGGTT
switch fluorescence ratio: 0.991 ± 0.041

TCCAGAGGGA
switch fluorescence ratio: 1.28 ± 0.23

TTAAGGGGGC
switch fluorescence ratio: 0.969 ± 0.042

GGGGGATAGA
switch fluorescence ratio: 1.03 ± 0.034

ACCAAAGAGA
switch fluorescence ratio: 0.993 ± 0.013

CCGTGTATGT
switch fluorescence ratio: 1.045 ± 0.0062

GGAATTATAA
switch fluorescence ratio: 0.99 ± 0.027
